Results on five molecules are retold here after patent US20180112000A1 (MILTENYI BIOTEC, published 2018).

For experiment [1], the target named is T1, recombinant CD28 antigen (extracellular domain, expressed in mammalian cells) (UniProt P10747 19-152, limits assumed).
T1 construct: extracellular domain; Immobilized on a CM5 chip by amine coupling; also called T-cell-specific surface glycoprotein CD28
The experiment in a line: SPR (Biacore), CD28 ECD on CM5 chip, Fab as analyte.
Procedure: (§1) Therefore, recombinant CD28 antigen (extracellular domain, expressed in mammalian cells) was immobilized on a CM5 chip by standard amine coupling. The Fab variants were used as analytes in HBS-EP buffer (0.01 M HEPES pH 7.4, 0.15 M NaCl, 3 mM EDTA, 0.005% v/v Surfactant P20) in a concentration of 50 μg/mL. Evaluation was conducted with the BIAeval Software using an 1:1 binding mass transfer model.

The target in experiment [2] is T1, recombinant CD28 antigen (extracellular …). The experiment is described as follows: SPR (Biacore), CD28 ECD on CM5 chip, Fab as analyte at 50 ug/mL, 1:1 binding mass transfer model.
Procedure: as §1

B1: chCD28 Fab (chimeric) (Fab, V domains shown)
VH: QVQLKESGPGLVAPSQSLSITCTVSGFSLTSYGVHWVRQPPGKGLEWLGVIWAGGSTNYNSALMSRLSISKDNSKSQVFLKMNSLQTDDTAMYYCARDKRAPGKLYYGYPDYWGQGTTLTVSS
VL: DIVLTQSPASLAVSLGQRATISCRASESVEYYVTSLMQWYQQKPGQPPKLLIYAASNVESGVPARFSGSGSGTDFSLNIHPVEEDDIAMYFCQQTRKVPSTFGGGTKLEIKR
notes: Fab expressed in E. coli periplasm; not shown: Fabs were purified by IMAC
As for B1, the “affinity [%] (by KD, chCD28 Fab set to 100%)” value (shortened to “affinity [%]”) in experiment [1] amounted to 100%. For the same molecule, in experiment [2], the equilibrium dissociation constant (Kd) was found to be 32 nM, the koff stood at 0.032 s⁻¹ and the kon was 1e+06 M⁻¹ s⁻¹.

B2: huCD28_v4 Fab (humanized) (Fab, V domains shown, not shown: small tags and cut ends)
VH: QVQLQESGPGLVKPSETLSLTCTVSGFSLTSYGVHWIRQPPGKGLEWLGVIWAGGSTNYNSSLKSRVTISKDTSKNQVSLKLSSVTAADTAVYYCARDKRAPGKLYYGYPDYWGQGTTLTVSS
VL: DIVMTQSPDSLAVSLGERATINCRASESVEYYVTSLMQWYQQKPGQPPKLLIYAASNVESGVPARFSGSGSGTDFTLTISPLQAEDVAVYYCQQTRKVPSTFGGGTKLEIKR
notes: Humanized 15E8 Fab expressed in E. coli periplasm
Turning to B2, the “affinity [%]” value in experiment [1] was 60%. For the same molecule, in experiment [2], the Kd is 53 nM, the koff was determined as 0.021 s⁻¹ and the kon was 400000 M⁻¹ s⁻¹.

B3: huCD28_v3 Fab (humanized) (Fab, V domains shown, not shown: small tags and cut ends)
VH: QVQLQESGPGLVKPSETLSLTCTVSGFSLTSYGVHWIRQPPGKGLEWLGVIWAGGSTNYNSSLKSRVTISKDTSKNQVFLKLSSVTADDTAVYYCARDKRAPGKLYYGYPDYWGQGTTLTVSS
VL: DIVMTQSPDSLAVSLGERATINCRASESVEYYVTSLMQWYQQKPGQPPKLLIYAASNVESGVPARFSGSGSGTDFTLTISPLQAEDVAVYYCQQTRKVPSTFGGGTKLEIKR
notes: as for B2
As for B3, in experiment [1], the “affinity [%]” value was found to be 62%. Besides, in experiment [2], the Kd was determined as 52 nM, the koff came to 0.026 s⁻¹ and the kon was 500000 M⁻¹ s⁻¹.

B4: huCD28_v1 Fab (humanized) (Fab, V domains shown, not shown: small tags and cut ends)
VH: QVQLQESGPGLVKPSETLSLTCTVSGFSLTSYGVHWVRQPPGKGLEWLGVIWAGGSTNYNSALMSRLTISKDTSKNQVSLKLSSVTAADTAVYYCARDKRAPGKLYYGYPDYWGQGTTLTVSS
VL: DIVMTQSPDSLAVSLGERATINCRASESVEYYVTSLMQWYQQKPGQPPKLLIYAASNVESGVPDRFSGSGSGTDFTLTISSLQAEDVAVYYCQQTRKVPSTFGGGTKLEIKR
notes: as for B2
As to B4, the “affinity [%]” value in experiment [1] worked out at 76%. In experiment [2], the Kd is 42 nM, the koff worked out at 0.08 s⁻¹ and the on-rate (kon) is 1.9e+06 M⁻¹ s⁻¹.

B5: huCD28_v2 Fab (humanized) (Fab, V domains shown, not shown: small tags and cut ends)
VH: QVQLQESGPGLVKPSETLSLTCTVSGFSLTSYGVHWVRQPPGKGLEWIGVIWAGGSTNYNPSLKSRVTISKDTSKNQFSLKLSSVTAADTAVYYCARDKRAPGKLYYGYPDYWGQGTTLTVSS
VL: DIVMTQSPDSLAVSLGERATINCKSSESVEYYVTSLLQWYQQKPGQPPKLLIYAASNRESGVPDRFSGSGSGTDFTLTISSLQAEDVAVYYCQQTRKVPSTFGGGTKLEIKR
notes: as for B2
As to B5, in experiment [1], the “affinity [%]” value amounted to 35%. In experiment [2], the Kd worked out at 92 nM, the koff is 0.055 s⁻¹ and the kon was found to be 600000 M⁻¹ s⁻¹.
